Experimental data: patent US20240390468A1, “SURVIVIN AND MAGE-A9 DUAL-TARGETED IMMUNOTHERAPY” (IMMUNOVACCINE TECHNOLOGIES INC., priority 2022, published 2024)

What was measured:
Conditions in all cases: remark: other sources report otherwise
[1] = biological target: MHC class 1 allele A*02:01; assay: REVEAL R-score, HLA-A*02:01
[2] = biological target: MHC class 1 allele A*02:01; assay: REVEAL peptide-MHC binding assay, HLA-A*02:01
[3] = biological target: MHC class 1 allele A*02:01; assay: REVEAL off-rate assay, HLA-A*02:01
[4] = biological target: MHC class 1 allele A*02:01; assay: REVEAL kinetic score, HLA-A*02:01
[5] = biological target: MHC class 1 allele A*02:01; assay: REVEAL on-rate assay, HLA-A*02:01

STFKNWPFL [SurA24 (survivin peptide antigen HLA-A24, …)]
R-score [1]: 0
REVEAL score [2]: 61.9
Off-rate T1/2 [3]: 7.2 min
Kinetic score [4]: 0
On-rate T1/2 [5]: 31.5 h
